From the nanobody polyreactivity screen of Harvey et al. (2022)

Assay: yeast display, Sf9 membrane polyspecificity reagent, FACS + sequencing; frameworks hold sequencing errors
Outline: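 Using colony PCR, genes from sorted yeast display clones were amplified, then sequenced on MiSeq at 2 × 250 and filtered by CDR length. The clones had been stained with 10% biotinylated, detergent-solubilized Sf9 membrane reagent for 1 hour at 4 °C and sorted by FACS into low and high (top ~1%) gates on anti-HA and streptavidin fluorescence. Polyreactivity labels come from the gate of origin.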

Sequence	polyreactivity (PSR sort gate)
QVQLVESGGGLVQAGGSLRLSCAASGITFNYYVMGWYRQAPGKERELVAAIRRGGSTNYADSVKGRFTISRDNAKNPVYLQMNSLKPEDTAVYYCAARTYRGLAYDYWGQGTQVTVSS	high polyreactivity
QVQLVESGGGLVQAGGSLRLSCAASGITFPANAMGWYRQAPGKERELVAAISSSGGSTYYADSVKGRFTISRDNAKNTVYLQMNSLKPEDTAVYYCAAYYGPSRSLYYYWGQGTQVTVSS	high polyreactivity
QVQLVESGGGLVQAGGSLRLSCAASGITFPFYAMGWYRQAPGKERELVAAISWSDVDTYYADSVKGRFTISRDNAKNTVYLQMNSLKPEDTAVYYCAVSGVHPYWSDYEYWGQGTQVTVSS	low polyreactivity
QVQLVESGGGLVQAGGSLRLSCAASGITFPGNAMGWYRQAPGKERDLVAVISSGTSTNYADSVKGRFTISRDNAKNTVYLHMNSLKPEDTAVYYCAKATSSFYHYRYDYWGQGTQVTVSS	low polyreactivity
QVQLVESGGGLVQAGGSLRLSCAASGITFPLYAMGWYRQAPGKERELVATISGRGGSTYYADSVKGRFTISRDNAKNTVYLQMNSLKPEDTEVYYCNADFRSPYFLLSWYHSGDYWGQGTQVTVSS	low polyreactivity
QVQLVESGGGLVQAGGSLRLSCAASGITFPQNAMGWYRQAPGKERELVATIDNVGSTNYADSVKGRFTISRDNAKNTVYLQMNSLKPEDTAGYYCAKDYDWTLDYDGYPGYDYWGQGTQVTVSS	high polyreactivity
QVQLVESGGGLVQAGGSLRLSCAASGITFPRYAMGWYRQAPGKERELVARISWGGGRTYYADSVKGRFTISRDNAKNTVYLPMNSLKPEDTAVYYSAARTWADPYGYWGQGTQVTVSS	high polyreactivity
QVQLVESGGGLVQAGGSLRLSCAASGITFPSYAMGWYRQAPGKEWELVATISRGDSTYYADSVKGRFTISRDNAKNTVYLQMNSLKPEDTAVYYCNARWWFQLYYYSTFAGYNYWGQGTQVTVSS	low polyreactivity
QVQLVESGGGLVQAGGSLRLSCAASGITFPYYAMGWSRQAPGKERELVAAISSSGGSTYYADSVKGRFTISRDNAKNTVYLQLNSLKPEDTAVYYCAAQRYINYDYWGQGTQVTVSS	high polyreactivity
QVQLVESGGGLVQAGGSLRLSCAASGITFQANAMGWYRQAPGKERELVAAISSSDGSTYYADSVKGRFTISRDNAKNTVYLQMNSLKPEDTAVYYCNVDYAQRVFLYDYWGQGTQVTVSS	low polyreactivity
QVQLVESGGGLVQAGGSLRLSCAASGITFQGYTMGWYRQAPGKEWELVAAISSNGGRTYYADSVKGRFTISRDNAKNTVYLQMNSLKPEDTAVYYCAARSFWTYRSGGPSDYYYWGQGTQVTVSS	high polyreactivity
QVQLVESGGGLVQAGGSLRLSCAASGITFQSNTMGCYRQAPGKERELVAAITWTGGRTYYADSVKGRFTISRDNAKNTVYLQMNSLKPEDTAVYYCNADGYAIGYNGKLDYWGQGTQVTVSS	high polyreactivity
QVQLVESGGGLVQAGGSLRLSCAASGITFQWYAMGWYRQAPGKERELVAGISSGGSTYYADSVKGRFTISRDNAKNTVYLQMNSLKPEDTAVYYCAADYGWYSPFYPSYKYEYWGQGTQVTVSS	low polyreactivity
QVQLVESGGGLVQAGGSLRLSCAASGITFRFNAMGWYRQAPGKEREFVAAITYSGDSTYYADSVKGRFTISRDNAKNTVYLQKNSLKPEDTAVYYCAADYYAISRRIFYYWGQGTQVTVSS	low polyreactivity
QVQLVESGGGLVQAGGSLRLSCAASGITFRGYTMGWYRQAPGKERELVARIRSSDGSTYYADSVKGRFTISRDNAKNTVYLQMNSLKPEDTAVYYCNADRRGRALKYYSWGQGTQVTVSS	low polyreactivity
QVQLVESGGGLVQAGGSLRLSCAASGITFRKYAMGWYRKAPGKERELVAAISVSGGSTYYADSVKGRFTISRDNAKNTVYLQMNSLKPEDTAVYYCATGRSTDKGYYYWGQGTQVTVSS	high polyreactivity
QVQLVESGGGLVQAGGSLRLSCAASGITFRRYTMGWYRQAPGKERELVAAITTNAGSTYYADSVKGRFTISRDNAKNTVYLQMNSLKPEDTAVYYCAARWYYPYRTRYSSSYGYWGQGTQVTVSS	high polyreactivity
QVQLVESGGGLVQAGGSLRLSCAASGITFRSYAMGWYRQAPGKDRELVAAISRTGGRTYYADSVKGRFTISRDNAKNTVYLQMNTLKAEDTAVYYCAAGGYSPYSLVGYDYWGQGTQVTVSS	high polyreactivity
QVQLVESGGGLVQAGGSLRLSCAASGITFRSYAMGWYRQAPGKERELVAAISTSGGRTYYADSVKGRFTISRDNAKNTVYLQMNSLKPEDTAVYYCNKVGAVYGYYAYGLGYWGQGTQVTVSS	high polyreactivity
QVQLVESGGGLVQAGGSLRLSCAASGITFRTNAMGSSRQAPGKERELVAAITTNGGNTYYADSVKGRFTISRDNAKNTVYLQMNSLKPEDTAVYYCNTATYVDSFPDPGDHWGQGTQVTVSS	low polyreactivity
QVQLVESGGGLVQAGGSLRLSCAASGITFRTNAMGWYRQAPGKERDLVAAIRTGYSTYYADSVKGRFTISRDNAKNPVYLQMNSLKPEDTAVYYCNAVRYSPVFRRKYDYWGQGTQVTVSS	high polyreactivity
QVQLVESGGGLVQAGGSLRLSCAASGITFRTNTMGWYRQAPGKERELVAAISRGGTSTYYADSVKGRFTISRDNAKNTVYLQMNSLKPEDTAVYYCAADTRFYSGRGTVSGDYWGQGTQVTVSS	low polyreactivity

Sequence	polyreactivity (PSR sort gate)
QVQLVESGGGLVQAGGSLRLSCAASGITFRTNTMGWYRQAPGKERELVAAITRSGVTTYYADSVKGRFTISRDNAKNTVYLQMNSLKPEDTAVYYCAAKSFYAHYDYWGQGTQVTVSS	high polyreactivity
QVQLVESGGGLVQAGGSLRLSCAASGITFRTYAMGWYRQALGKERELVAVITWSGGRTYYADSVKGRFTISRDNANNTVYLQMHSLKPEDTAVYYCNALAYYIRYYYWGQGTQVTVSS	high polyreactivity
QVQLVESGGGLVQAGGSLRLSCAASGITFRTYAMGWYRQAPGKERELVAAITRGDSTYYADSVKGRFTISRDNAKNSVYLQMNSLKPEETAVYYCAKESYIVNSRYYTGKMYYWGQGTQVTVSS	low polyreactivity
QVQLVESGGGLVQAGGSLRLSCAASGITFRVYAMGWYRPAPGKERELVAAITSSGGSTYYADSVKGRFTISRDYAKNTVYLQMNSLKPEDTAVYYCNKVTYGYAYWRYDGYDYWGQGTQVTVSS	low polyreactivity
QVQLVESGGGLVQAGGSLRLSCAASGITFRVYVMGWYRQAPGKERELVAAITSGTSTYYADSVKGRITISRDNAKNTVYLQMNRLKPEDTAVYYCAALIFYGDYIEYDYWGQGTQVTVSS	low polyreactivity
QVQLVESGGGLVQAGGSLRLSCAASGITFRWYAMGWYRPAPGKEWELVAAMNSRGTSTYYADSVKGRFTISRDNAKNTVYLQMNSLKPEDTSVYYCAATYLYIHGGFRPQYDYWGQGTQVTVSS	high polyreactivity
QVQLVESGGGLVQAGGSLRLSCAASGITFRYYAMGWYRQAPGKERELVARITTDGSTHYADSVKGRFTISRDNAKNTVYLQMNSLKPEDTAVYYCNARHRNLAEYDYWGQGTQVTVSS	low polyreactivity
QVQLVESGGGLVQAGGSLRLSCAASGITFRYYAMGWYRQAPGKERELVATISRGVRTNYADSVKGRFTISRDNAKNTVYLQMNSLKPEDTAVYYCNADYASARRYDYWGQGTQVTVSS	high polyreactivity
QVQLVESGGGLVQAGGSLRLSCAASGITFSDYAMGWYRQAPGKERELVAGITSGGSTYYADSVKGRFTISRDNAKNTVYLQMNSLKPEDTAVYYCAAVRRWKYDWGQGTQVTVSS	high polyreactivity
QVQLVESGGGLVQAGGSLRLSCAASGITFSGHAMGWYRQAPGKERELVAAITGSGGGTYYADSVMGRFTISRDNAKNTVYLQMNCLKPEDTAVYYCNADNYYYSGFDYWGQGTQVTVSS	low polyreactivity
QVQLVESGGGLVQAGGSLRLSCAASGITFSGNAMGWYRPATGKERELVAGISRRGGSTYYADSVKGRFTISRDNAKNTVYLEMNSLKPEDTAVYYCARQFRRYYYAGYRYDYWGQGTQVTVSS	high polyreactivity
QVQLVESGGGLVQAGGSLRLSCAASGITFSGNAMGWYRQAPGKERELVAAISGRGGSTYYADSVKGRFTISRDNAKNTVYLQMNSLKPEDTAVYYCAARVPSPYVATYYYWGQGTQVTVSS	high polyreactivity
QVQLVESGGGLVQAGGSLRLSCAASGITFSHNAMGWYRQAPGKERELVAAITRSGGSTYYADSVKGRFTISRDNAKNTVYLQMNSLKPEDTAVYYCATEDYYRQYGYWSLSRMDHWGQGTQVTVSS	low polyreactivity
QVQLVESGGGLVQAGGSLRLSCAASGITFSLYAMGWYRQAPGKERELVAAITRSGGSTYYADSVKGRFTISRDNAKNTVYLQMNSLKPEDTAVYYCAALRPGVRRYYYWGHGTQVTVSS	high polyreactivity
QVQLVESGGGLVQAGGSLRLSCAASGITFSRNAMGWYRQAPGKERELVAVISTRGGRTYYADSVKGRFTISRDNAKNTFYLQMNSLKPEDTAVYYCAASPDPYWRRMDYWGQGTQVTVSS	high polyreactivity
QVQLVESGGGLVQAGGSLRLSCAASGITFSRNGMGWYRQAPGKERELVAAISTSGDSTDYADSVKGRFTISRDNAKNTVYLQMNSLKPEDTAVYYCAASYAFLYYGYDSWGQGTQVTVSS	low polyreactivity
QVQLVESGGGLVQAGGSLRLSCAASGITFSRNTMGWYRQGPGKERELVAAITYSGGRTYYADSVKGRFTISRDNAKNTVYLQMNSLKPEDTAVYYCARRGTGKYPYYQHYYWGQGTQVTVSS	high polyreactivity
QVQLVESGGGLVQAGGSLRLSCAASGITFSRNVMGWYRQAPGKERELVAAISRSGGRTYYADSVKGRLTISRDNAKNTVYLQMNSLKPEDTAVYYCNRDIGGTSVLDDYWGQGTQVTVSS	low polyreactivity
QVQLVESGGGLVQAGGSLRLSCAASGITFSRYAMGWYRQAPGKERELVAAITWDGGRTYYADSVKGRFTISRDNAKNTVYLQMNSLKPEDTAVYYCAASRYSPVRWVWLYYWGQGTQVTVSS	high polyreactivity
QVQLVESGGGLVQAGGSLRLSCAASGITFSYNAMGWDRQAPGKERELVAAISSNSDSTYYADSVKGRFTISRDNAKNTVYLQMNSLKPEDTAVYYCAADTPDAPDYSGFYYWGQGTQVTVSS	low polyreactivity
QVQLVESGGGLVQAGGSLRLSCAASGITFSYNAMGWYRQAPGKEREFVAAISSNSDSTYYADSVKGRFTISRDTAKITVYLQMNSLKPEDTAVYYCAADTPDAPDYSGFYYWGQGTQVTVSS	low polyreactivity
